This note sets out measurements from patent publication US20220411523A1.

In general, Kd refers to the equilibrium constant for the complex coming apart. Read a low Kd as a tighter complex.

In assay [1] the target is human 4-1BB full length, on the cell surface (human) (UniProt Q07011). The assay is described as follows: FACS competition, CHO-K1-hu4-1BB; labelled Bio-4-1BBL 2 µg/ml fixed, competitor varied.
Assay [2] shares this target. Kind of assay: FACS competition, CHO-K1-hu4-1BB; labelled Bio-Hanke10F4 1.5 µg/ml fixed, competitor varied.
Assay [3] has as its target Human 4-1BB + Mouse 4-1BB domain2B,3A,3B(aa64-118) (human; mouse) (UniProt Q07011). The assay is described as follows: FACS, transiently transfected Expi293 cells (cell B). In general terms: In flow cytometry, cells or beads pass a laser one at a time.
Assay [4] has as its target Human 4-1BB + Mouse 4-1BB domain3B,4A,4B(aa97-159) (human; mouse) (UniProt Q07011). Kind of assay: FACS, transiently transfected Expi293 cells (cell D).
The target of assay [5] is h4-1BB-His antigen (Acro company, product number: Q07011-1) (human) (UniProt Q07011). The assay is described as follows: BLI (Fortebio), h4-1BB-His. A general note: In BLI a coated tip is dipped into the sample, and binding shifts an interference pattern.
Chain of h4-1BB-His antigen (Acro company, product number: Q07011-1) (human) (Q07011 24-186): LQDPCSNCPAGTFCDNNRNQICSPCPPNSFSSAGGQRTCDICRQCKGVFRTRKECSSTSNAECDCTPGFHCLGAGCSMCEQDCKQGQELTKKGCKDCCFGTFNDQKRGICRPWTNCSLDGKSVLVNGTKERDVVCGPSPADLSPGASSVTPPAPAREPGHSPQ
The target of assay [6] is Human 4-1BB + Mouse 4-1BB domain1,2A,2B(aa24-86) (human; mouse). The assay is described as follows: FACS, transiently transfected Expi293 cells (cell A).
Chain of Human 4-1BB + Mouse 4-1BB domain1,2A,2B(aa24-86) (human; mouse) (chain, as listed by the source): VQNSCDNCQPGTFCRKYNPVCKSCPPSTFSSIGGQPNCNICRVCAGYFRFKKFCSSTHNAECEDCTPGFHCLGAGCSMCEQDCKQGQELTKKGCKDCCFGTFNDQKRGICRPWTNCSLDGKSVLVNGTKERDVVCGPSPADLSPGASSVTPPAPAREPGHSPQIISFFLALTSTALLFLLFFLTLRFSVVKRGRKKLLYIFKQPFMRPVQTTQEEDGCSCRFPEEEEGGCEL
The target of assay [7] is Human 4-1BB + Mouse 4-1BB domain1,4B,NF(aa24-46,aa139-186) (human; mouse). The assay is described as follows: FACS, transiently transfected Expi293 cells (cell F).
Chain of Human 4-1BB + Mouse 4-1BB domain1,4B,NF(aa24-46,aa139-186) (human; mouse) (chain, as listed by the source): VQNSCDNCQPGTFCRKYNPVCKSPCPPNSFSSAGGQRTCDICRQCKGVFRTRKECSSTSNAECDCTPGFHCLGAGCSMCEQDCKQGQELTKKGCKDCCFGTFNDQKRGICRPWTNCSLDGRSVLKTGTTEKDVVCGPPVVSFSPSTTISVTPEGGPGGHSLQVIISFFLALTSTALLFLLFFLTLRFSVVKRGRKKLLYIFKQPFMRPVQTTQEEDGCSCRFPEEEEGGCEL
The target in assay [8] is Human 4-1BB + Mouse 4-1BB domain4A,4B,NF(aa119-186) (human; mouse). The assay is described as follows: FACS, transiently transfected Expi293 cells (cell E).
Chain of Human 4-1BB + Mouse 4-1BB domain4A,4B,NF(aa119-186) (human; mouse) (chain, as listed by the source): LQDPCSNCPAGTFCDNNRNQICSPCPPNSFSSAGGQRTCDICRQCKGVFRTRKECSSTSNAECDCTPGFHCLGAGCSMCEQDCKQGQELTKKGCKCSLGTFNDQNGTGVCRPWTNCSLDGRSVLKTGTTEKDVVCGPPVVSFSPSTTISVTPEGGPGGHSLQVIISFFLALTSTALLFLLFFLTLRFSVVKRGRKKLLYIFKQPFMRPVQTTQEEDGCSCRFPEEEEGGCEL
Assay [9] deals with Human 4-1BB + Mouse 4-1BB domain3A,3B,4A(aa87-133) (human; mouse) (UniProt Q07011). The assay is described as follows: FACS, transiently transfected Expi293 cells (cell C).
Chain of Human 4-1BB + Mouse 4-1BB domain3A,3B,4A(aa87-133) (human; mouse) (Q07011 other isoform, or with tags, fused parts or gaps): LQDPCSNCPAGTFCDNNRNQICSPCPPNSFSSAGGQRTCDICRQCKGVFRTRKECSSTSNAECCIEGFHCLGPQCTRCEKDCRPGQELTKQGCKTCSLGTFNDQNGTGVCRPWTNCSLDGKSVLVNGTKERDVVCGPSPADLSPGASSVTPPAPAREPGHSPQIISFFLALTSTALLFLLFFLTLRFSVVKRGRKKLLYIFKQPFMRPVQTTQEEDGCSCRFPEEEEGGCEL
Assay [10] deals with human 4-1BB full length, on the cell surface (human) (UniProt Q07011). Kind of assay: FACS, transiently transfected Expi293 cells (WT).

Chain of human 4-1BBL-hIgG (Fc fusion) (chain, part): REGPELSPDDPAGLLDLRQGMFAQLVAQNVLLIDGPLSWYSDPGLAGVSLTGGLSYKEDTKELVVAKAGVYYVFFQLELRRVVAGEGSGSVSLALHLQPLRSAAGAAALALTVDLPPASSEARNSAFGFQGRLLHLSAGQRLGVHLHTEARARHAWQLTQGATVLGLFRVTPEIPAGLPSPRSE
Chain of Urelumab (antibody) (VH): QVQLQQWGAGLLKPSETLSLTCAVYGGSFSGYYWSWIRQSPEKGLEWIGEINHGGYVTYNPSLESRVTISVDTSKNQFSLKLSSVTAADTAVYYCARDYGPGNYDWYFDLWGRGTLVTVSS
Chain of Urelumab (antibody) (VL): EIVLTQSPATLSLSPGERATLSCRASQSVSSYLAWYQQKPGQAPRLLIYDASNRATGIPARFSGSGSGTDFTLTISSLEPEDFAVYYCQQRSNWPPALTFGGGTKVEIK
Chain of human 4-1BB full length, on the cell surface (human) (Q07011 24-255 limits assumed): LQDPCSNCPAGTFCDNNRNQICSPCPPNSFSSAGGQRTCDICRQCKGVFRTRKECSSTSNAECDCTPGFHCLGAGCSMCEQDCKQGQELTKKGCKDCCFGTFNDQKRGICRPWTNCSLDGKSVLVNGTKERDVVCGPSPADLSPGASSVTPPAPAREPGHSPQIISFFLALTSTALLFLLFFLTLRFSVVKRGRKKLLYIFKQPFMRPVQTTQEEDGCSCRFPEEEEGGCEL
Chain of Human 4-1BB + Mouse 4-1BB domain2B,3A,3B(aa64-118) (human; mouse) (Q07011 other isoform, or with tags, fused parts or gaps): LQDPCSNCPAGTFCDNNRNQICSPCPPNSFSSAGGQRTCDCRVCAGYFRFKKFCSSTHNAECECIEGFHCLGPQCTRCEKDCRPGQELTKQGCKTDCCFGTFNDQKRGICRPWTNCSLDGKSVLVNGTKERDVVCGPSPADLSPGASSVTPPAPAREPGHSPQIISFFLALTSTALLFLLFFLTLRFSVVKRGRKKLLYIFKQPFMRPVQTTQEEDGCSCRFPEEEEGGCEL
Chain of Human 4-1BB + Mouse 4-1BB domain3B,4A,4B(aa97-159) (human; mouse) (Q07011 other isoform, or with tags, fused parts or gaps): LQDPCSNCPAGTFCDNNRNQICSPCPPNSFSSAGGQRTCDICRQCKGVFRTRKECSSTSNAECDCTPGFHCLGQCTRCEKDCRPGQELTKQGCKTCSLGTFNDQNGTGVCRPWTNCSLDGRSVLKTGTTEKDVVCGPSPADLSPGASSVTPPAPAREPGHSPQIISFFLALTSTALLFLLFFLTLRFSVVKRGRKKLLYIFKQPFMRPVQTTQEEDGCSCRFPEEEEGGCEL

With human 4-1BBL-hIgG (Fc fusion), in [1], the FACS signal of Bio-4-1BBL at (B:A) Ratio 0.03906 was found to be 7740, the FACS signal of Bio-4-1BBL at (B:A) Ratio 0.15625 stood at 7910, the FACS signal of Bio-4-1BBL at (B:A) Ratio 0.625 stood at 6850 and the FACS signal of Bio-4-1BBL at (B:A) Ratio 2.5 amounted to 6320. Further, in assay [1], the FACS signal of Bio-4-1BBL at (B:A) Ratio 10 was found to be 3770 and the FACS signal of Bio-4-1BBL at (B:A) Ratio 40 came out at 3220. Further, in [2], the FACS signal of Bio-Hanke10F4 at (B:A) Ratio 0.058593 came out at 6310, the FACS signal of Bio-Hanke10F4 at (B:A) Ratio 0.23437 is 6580, the FACS signal of Bio-Hanke10F4 at (B:A) Ratio 0.9375 is 4860 and the FACS signal of Bio-Hanke10F4 at (B:A) Ratio 3.75 was determined as 2290. Moreover, in [2], the FACS signal of Bio-Hanke10F4 at (B:A) Ratio 15 was determined as 584 and the FACS signal of Bio-Hanke10F4 at (B:A) Ratio 60 is 254.

As to Urelumab (antibody), the Mean fluorescence intensity in assay [3] was determined as 313000; in assay [4], 123000; in assay [6] it was 1820; in [7], 4910; in [8], 194000; in assay [9] it was 193000. Moreover, the Mean fluorescence intensity in [10] came to 146000. The substance also displayed a Kd in assay [5] of 5.76 nM.

As for Utomilumab (antibody), in [6], the Mean fluorescence intensity turned out to be 19000.
